Assay results as given in the supplement of paper PMC10567573.

B1: KRT33B (parent)
chain: YQSYFKTIEELQQKILCSKSENAR
B2: OAS1 (parent)
chain: YIGTHEYPHFSHRPSTLQAASTPQ

Variants of: B1
Assay: protein stability index of a GFP-peptide fusion (GPS, HEK-293T) (PSI 1-6); higher = more stable
Details: c terminus: a fixed tail appended
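Also: lentivirally expressed fusions sorted by FACS into six bins by GFP to DsRed ratio, PSI derived from sequencing read proportions per bin multiplied by bin number.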

Protein stability index: each site, then its substitutions
R24: F 1.47; M 1.92; V 1.98; K 1.84; T 1.76; G 2.55; S 2.07; D 1.78; E 1.88; L 2.15; I 1.79; P 2.13; Q 2.34; A 1.94; N 2.02; W 1.15; H 1.71; Y 1.3; C 2.4
A23: K 1.76; W 1.57; Q 2.36; L 1.73; Y 1.64; F 1.47; M 2.11; T 2.27; P 1.68; E 2.77; D 1.62; N 2.24; I 1.9; R 2.13; V 2.35; H 1.68; C 1.86; G 2.03; S 2.21
N22: Y 1.86; T 1.39; W 1.9; V 1.89

Variants of: B2
Assay: as above
Details: c terminus: a fixed tail appended

Protein stability index, by site and new letter:
T4: V 1.76; Y 1.84; D 2.56; W 2.89; Q 1.89; N 2.2; R 1.7; C 2.12; E 2.55; I 1.84; S 1.89; P 2.34; F 2.11; A 1.86; L 1.81; K 2.15; H 1.95; M 2.15; G 2.27
E6: W 3.29; I 1.75; Q 1.68; C 2.26; L 2.99; G 1.81; R 1.61; M 1.46; S 1.79; K 2.06; A 2; D 1.92; F 3.8; H 2.32; N 2.18; P 1.5; Y 1.89; V 1.88; T 2.14
I2: V 2.61; H 1.44; F 2.67; A 2.29; C 1.87; N 3.29; S 2.49; W 2.66; Y 3.27; E 4.18; K 3.47; P 2.47; R 3.68; G 3.15; T 2.17; D 3.48; M 2.92; Q 2.59; L 2.73
H5: M 2.14; E 2.53; L 2.12; I 1.93; R 2.35; C 1.75; Q 2.38; S 1.94; F 2.28; G 2.09; A 1.72; P 2.45; D 2.52; W 2.29; V 2.23; K 2.47; N 2.03; T 2.3; Y 1.83
Y7: G 1.98; C 2.49; M 2.37; F 1.68; A 2.23; E 3.16; L 2.06; H 2.18; I 2.44; K 3.34; D 3.16
G3: F 2.35; E 1.8; T 2.29; M 1.86; N 2.3; I 2.6; Y 1.6; W 1.83; Q 2.32; C 1.97; V 1.95; H 1.89; S 2.03; A 2.11; P 2.28; K 2.48; L 2.19; D 1.75; R 2.07
Y1: G 4.34; N 4.04; Q 4.21; P 4.32; W 2.73; T 4.07; E 4.08; M 3.66; I 3.58; V 3.64; C 3.33; S 4; F 1.49; D 4.09; H 3.64; L 3.54; K 3.52; A 4.01; R 3.84
